Series [1] deals with the molecule itself. Description: crystal structure; PrpC apo and oxaloacetate-bound (2.5 mM oxaloacetate) crystals; sitting drop, 100 to 200 mM Bis-Tris pH 5.5, 20 to 30% PEG 3350, 0.1% D-xylose, 19°C.
Series [2] concerns the molecule itself. The series can be described thus: crystal structure; GltA apo, 20 to 25 mg/mL, sitting drop vapor diffusion, 19°C.

B1: 2-methylcitrate synthase PrpC from Pseudomonas aeruginosa (enzyme)
chain: MAEAKVLSGAGLRGQVAGQTALSTVGQEGAGLTYRGYDVRDLAAAAIFEEVAYLLLYGELPNKQQLDAYLKKLQGQRDLPQALKEVLERIPKDAHPMDVMRTGASVLGTLEPELSFDQQRDVADRLLAAFPAIMTYWYRFTHEGQRIDCNSDEPTIGGHFLALLHGKKPSELHVKVMNVSLILYAEHEFNASTFTARVCASTLSDLYSCVTGAIGSLRGPLHGGANEAAMELIERFSSPQEATAELLKMLERKDKIMGFGHAIYKDSDPRNEVIKGWSKQLADEVGDKVLFAVSEAIDKTMWEQKKLFPNADFYHASAYHFMGIPTKLFTPIFVCSRTSGWTAHVFEQRANNRIIRPSAEYTGVEQRAFVPLEQR
notes: 2-methylcitrate synthase PrpC of Pseudomonas aeruginosa; PCR-amplified ORF of prpC cloned into pET-19m; printed length 376 amino acids, theoretical monomer mass 41.7 kDa; also called PrpCPa; 2-MCS; source: E. coli, purified (Ni-NTA, His6 tag cleaved with TEV protease); not shown: His6, N-terminal, cleaved
On to B1, for which the “stoichiometry N” value in series [1] was 2.

B2: citrate synthase GltA from Pseudomonas aeruginosa (enzyme, UniProt P14165 1-428, looked up)
chain: MADKKAQLIIEGSAPVELPVLSGTMGPDVVDVRGLTATGHFTFDPGFMSTASCESKITYIDGDKGVLLHRGYPIEQLAEKSDYLETCYLLLNGELPTAAQKEQFVGTIKNHTMVHEQLKTFFNGFRRDAHPMAVMCGVIGALSAFYHDSLDINNPKHREVSAHRLIAKMPTIAAMVYKYSKGEPMMYPRNDLNYAENFLHMMFNTPCETKPISPVLAKAMDRIFILHADHEQNASTSTVRLAGSSGANPFACIASGIAALWGPAHGGANEAVLRMLDEIGDVSNIDKFVEKAKDKNDPFKLMGFGHRVYKNFDPRAKVMKQTCDEVLQELGINDPQLELAMKLEEIARHDPYFVERNLYPNVDFYSGIILKAIGIPTSMFTVIFALARTVGWISHWQEMLSGPYKIGRPRQLYTGHTQRDFTALKDRG
notes: citrate synthase GltA of Pseudomonas aeruginosa; PCR-amplified ORF of gltA cloned into pET-19m; printed length 429 amino acids; The hexamer is that of the crystal's asymmetric unit; also called GltAPa; citrate (CIT) synthase; source: E. coli, purified (Ni-NTA, His6 tag cleaved with TEV protease); not shown: His6, N-terminal, cleaved
Consider B2, for which the “stoichiometry N” value in series [2] worked out at 6.

As usually defined, the stoichiometry N is the number of molecules, sites or subunits per partner or assembly.

Values taken from PMC9765439, “Systems-Wide Dissection of Organic Acid Assimilation in Pseudomonas aeruginosa Reveals a Novel Path To Underground Metabolism” (mBio, 2022).
